According to patent US20190160180A1 (FUSION PHARMACEUTICALS, published 2019):

Columns and labels:
[1] = target: T1, human Endosialin expressed by Sjsa-1 cells (human, UniProt Q9HCU0 18-757); test: flow cytometry on Sjsa-1 cells
T1 construct: Endogenous Endosialin on human cell lines; also called Endosialin present on the cell plasma membrane; Endosialin on cell surface (Sjsa-1, T/G HA-VSMC, A673, SKNAS, A375 cells)
T1 sequence: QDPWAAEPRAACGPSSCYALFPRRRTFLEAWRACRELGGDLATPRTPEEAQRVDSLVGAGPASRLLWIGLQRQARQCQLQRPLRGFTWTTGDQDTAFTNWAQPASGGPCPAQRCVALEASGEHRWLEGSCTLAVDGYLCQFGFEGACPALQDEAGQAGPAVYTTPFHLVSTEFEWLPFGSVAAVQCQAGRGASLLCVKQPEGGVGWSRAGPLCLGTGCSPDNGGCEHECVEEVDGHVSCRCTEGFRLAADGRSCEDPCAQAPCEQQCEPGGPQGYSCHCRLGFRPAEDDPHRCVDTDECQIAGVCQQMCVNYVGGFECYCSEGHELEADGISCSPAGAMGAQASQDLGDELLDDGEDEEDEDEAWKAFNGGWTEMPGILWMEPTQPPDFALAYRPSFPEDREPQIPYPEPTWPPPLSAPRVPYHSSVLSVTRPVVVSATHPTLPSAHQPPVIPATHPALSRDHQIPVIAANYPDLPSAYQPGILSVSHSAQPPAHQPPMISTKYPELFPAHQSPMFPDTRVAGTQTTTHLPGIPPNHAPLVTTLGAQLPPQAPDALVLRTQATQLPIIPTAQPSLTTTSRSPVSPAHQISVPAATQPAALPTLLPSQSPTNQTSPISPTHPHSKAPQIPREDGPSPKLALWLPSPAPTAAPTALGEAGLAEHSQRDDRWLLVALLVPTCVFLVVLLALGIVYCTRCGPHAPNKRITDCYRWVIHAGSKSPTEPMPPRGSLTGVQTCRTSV
Experimental: (§1) Materials and Methods: (FIG. 2). (A) Ninety-six well plates (NUNC Maxisorp modules) were pre-coated with human recombinant Endosialin (1 μg/ml) overnight at 4° C. After blocking with 1% BSA in PBS+0.1% Tween-20 for 1 hour at 4° C., mMP-E-8.3, cMP-E-8.3, hMP-E-8.3 and a commercial antibody against Endosialin at the indicated concentration were added and incubated for 2 hours at room temperature. After several washes with PBS+0.1% Tween-20, a goat anti-mouse or anti-human IgG-HRP solution was added to each well and incubated for 1 hour at 37° C. After washes, stabilized chromogen was added to each well for at least 10 minutes in the dark, then the reaction was stopped with the addition of 1 N H₂SO4 and the absorbance was read at 450 nm with an ELISA reader. (B) Sjsa-1 human osteosarcoma cell line were stained with 1 μg/ml of mMP-E-8.3 antibody, or cMP-E-8.3 and hMP-E-8.3 at 100 ng/ml (blue line) and 1 ug/ml (green line) or with 1 μg/ml of a commercial antibody against Endosialin on ice for 30 minutes after incubation with a Goat anti-mouse/anti-human Alexa-488 conjugated antibodies for 1 hour on ice, cells were analyzed by flow cytometer (FACS). (C) Sjsa-1 human osteosarcoma cells were grown on glass coverslips for 24 hours. […]

[2] = target: T2, human recombinant Endosialin (human, UniProt Q9HCU0 18-687, limits assumed); test: ELISA, plate coated with recombinant Endosialin
T2 construct: Coated on ELISA plates at 1 ug/ml; also called TEM-1; TEM1
T2 sequence: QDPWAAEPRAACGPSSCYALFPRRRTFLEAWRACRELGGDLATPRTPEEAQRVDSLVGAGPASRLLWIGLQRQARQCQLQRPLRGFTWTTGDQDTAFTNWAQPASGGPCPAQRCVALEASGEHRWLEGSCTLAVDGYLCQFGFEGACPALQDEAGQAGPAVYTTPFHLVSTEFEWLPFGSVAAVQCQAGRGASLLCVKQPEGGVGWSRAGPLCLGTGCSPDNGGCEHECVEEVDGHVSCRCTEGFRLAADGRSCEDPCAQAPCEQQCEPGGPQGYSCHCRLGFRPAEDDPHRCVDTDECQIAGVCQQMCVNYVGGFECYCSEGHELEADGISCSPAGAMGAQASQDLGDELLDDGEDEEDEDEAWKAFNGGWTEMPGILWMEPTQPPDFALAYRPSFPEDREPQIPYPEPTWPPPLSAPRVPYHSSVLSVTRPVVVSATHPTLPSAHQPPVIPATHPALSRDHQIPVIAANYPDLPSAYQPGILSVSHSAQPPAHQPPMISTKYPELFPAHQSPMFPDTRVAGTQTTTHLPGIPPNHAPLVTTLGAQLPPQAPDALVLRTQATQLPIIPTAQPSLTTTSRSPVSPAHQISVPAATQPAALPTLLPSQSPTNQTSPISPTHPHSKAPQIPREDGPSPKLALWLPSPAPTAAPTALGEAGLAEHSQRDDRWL
Experimental: as §1

binding result [1]: binds | binding result [2]: binds
B1: cMP-E-8.3 (antibody, V domains shown)
VH: QVQLQESGPGLVAPSQSLSITCTVSGFSLTGYGVNWVRQPPEKGLEWLGMIWVDGSTDYNSALKSRLNISKDKSKSQVFLKMNSLQTDDTARYYCARGGYGAMDYWGQGTSVTVSS
VL: DIQMNQSPSSLSASLGDTITITCHASQNINVWLTWYQQKPGNIPKLLIYKASNLHTGVPSRFSGSGSGTGFTLTISSLQPEDIATYYCQQGQSYPWTFGGGTKLEIKR
notes: also called chimeric cMP-E-8.3; chimerized version of mMP-E-8.3
